The values that follow are results of earlier work, collected in publication PMC4740375.

Like-named read-outs stand apart in the source and are kept apart here.

Data set [1] concerns the target CD28 (Homo sapiens) (UniProt P10747).
Data set [2] has the same target. The source holds these as a separate data set.

With CD80 (from UniProt P33681), the Kd (as a rule, the equilibrium constant for the complex coming apart) in data set [1] was 4 µM.
CD86 (from UniProt P42081): the Kd in data set [2] was 20 µM.
